The results in this text go back to US20210171613A1 (NATIONAL RESEARCH COUNCIL OF CANADA, published 2021).

The target in assay [1] is T1, Clostridium difficile toxin A (TcdA) (Clostridium difficile, UniProt P16154 1-2710). As to the kind of experiment: cell-based or functional assay.
The target of assay [2] is T1, Clostridium difficile toxin A (TcdA). Put plainly: SPR (Biacore 3000), VHH over immobilized TcdA, 1:1 fit. As for the experimental part: (§1) Before surface plasmon resonance (SPR) binding experiments, IMAC-purified VHHs were subjected to de-salting and further purification by size-exclusion chromatography (SEC). Approximately 500 μg of each VHH was injected over a Superdex 75 Increase 10/300 GL SEC column (GE Healthcare) in Biacore running buffer HBS-EP (10 mM HEPES pH 7.4, 150 mM NaCl, 3 mM EDTA, 0.005% (v/v) P20; GE Healthcare) under the control of an ÄKTA FPLC at 0.8 mL/min. Monomeric VHH fractions were collected and analyzed for binding to TcdA using a Biacore 3000 SPR instrument (GE Healthcare). Approximately 4,500 resonance units (RUs) of TcdA (List Biological Laboratories, Campbell, Calif.) were immobilized on a CM5 sensor chip (GE Healthcare) using the conditions previously described (Hussack et al, 2011). HBS-EP running buffer was used for all binding studies and regeneration of TcdA surfaces. Next, various dilution ranges of VHHs (as low as 10 nM-0.5 nM to as high as 5 μM-50 nM) were injected over immobilized TcdA at a flow rate of 40 μL/min with 120 s contact time and 600 s dissociation. Reference-subtracted sensorgrams were analyzed with BIAevaluation software (GE Healthcare) and fit to a 1:1 binding model. In cases where rapid kₒₙ and koff rate constants were observed, equilibrium dissociation constants (KDs) were determined by steady-state analysis.

Assay [3] shares this target. As to the kind of experiment: SPR on immobilized TcdA. As to the method:
as §1
The location of these mutations relative to the antigen epitope is illustrated in FIG. 2C.

The target is the same in assay [4]. Put plainly: SPR (Biacore 3000), VHH over immobilized TcdA; ratio of parent KD to mutant KD. As for the experimental part: as §1
Assay [5] shares this target. Put plainly: SPR (Biacore 3000), VHH over immobilized TcdA; binding free energy difference relative to parent VHH. As to the method:
as §1

The target is the same in assay [6]. As to the kind of experiment: SPR (Biacore 3000), VHH over immobilized TcdA, steady-state analysis. As to the method:
as §1

T1 sequence (P16154 whole entry): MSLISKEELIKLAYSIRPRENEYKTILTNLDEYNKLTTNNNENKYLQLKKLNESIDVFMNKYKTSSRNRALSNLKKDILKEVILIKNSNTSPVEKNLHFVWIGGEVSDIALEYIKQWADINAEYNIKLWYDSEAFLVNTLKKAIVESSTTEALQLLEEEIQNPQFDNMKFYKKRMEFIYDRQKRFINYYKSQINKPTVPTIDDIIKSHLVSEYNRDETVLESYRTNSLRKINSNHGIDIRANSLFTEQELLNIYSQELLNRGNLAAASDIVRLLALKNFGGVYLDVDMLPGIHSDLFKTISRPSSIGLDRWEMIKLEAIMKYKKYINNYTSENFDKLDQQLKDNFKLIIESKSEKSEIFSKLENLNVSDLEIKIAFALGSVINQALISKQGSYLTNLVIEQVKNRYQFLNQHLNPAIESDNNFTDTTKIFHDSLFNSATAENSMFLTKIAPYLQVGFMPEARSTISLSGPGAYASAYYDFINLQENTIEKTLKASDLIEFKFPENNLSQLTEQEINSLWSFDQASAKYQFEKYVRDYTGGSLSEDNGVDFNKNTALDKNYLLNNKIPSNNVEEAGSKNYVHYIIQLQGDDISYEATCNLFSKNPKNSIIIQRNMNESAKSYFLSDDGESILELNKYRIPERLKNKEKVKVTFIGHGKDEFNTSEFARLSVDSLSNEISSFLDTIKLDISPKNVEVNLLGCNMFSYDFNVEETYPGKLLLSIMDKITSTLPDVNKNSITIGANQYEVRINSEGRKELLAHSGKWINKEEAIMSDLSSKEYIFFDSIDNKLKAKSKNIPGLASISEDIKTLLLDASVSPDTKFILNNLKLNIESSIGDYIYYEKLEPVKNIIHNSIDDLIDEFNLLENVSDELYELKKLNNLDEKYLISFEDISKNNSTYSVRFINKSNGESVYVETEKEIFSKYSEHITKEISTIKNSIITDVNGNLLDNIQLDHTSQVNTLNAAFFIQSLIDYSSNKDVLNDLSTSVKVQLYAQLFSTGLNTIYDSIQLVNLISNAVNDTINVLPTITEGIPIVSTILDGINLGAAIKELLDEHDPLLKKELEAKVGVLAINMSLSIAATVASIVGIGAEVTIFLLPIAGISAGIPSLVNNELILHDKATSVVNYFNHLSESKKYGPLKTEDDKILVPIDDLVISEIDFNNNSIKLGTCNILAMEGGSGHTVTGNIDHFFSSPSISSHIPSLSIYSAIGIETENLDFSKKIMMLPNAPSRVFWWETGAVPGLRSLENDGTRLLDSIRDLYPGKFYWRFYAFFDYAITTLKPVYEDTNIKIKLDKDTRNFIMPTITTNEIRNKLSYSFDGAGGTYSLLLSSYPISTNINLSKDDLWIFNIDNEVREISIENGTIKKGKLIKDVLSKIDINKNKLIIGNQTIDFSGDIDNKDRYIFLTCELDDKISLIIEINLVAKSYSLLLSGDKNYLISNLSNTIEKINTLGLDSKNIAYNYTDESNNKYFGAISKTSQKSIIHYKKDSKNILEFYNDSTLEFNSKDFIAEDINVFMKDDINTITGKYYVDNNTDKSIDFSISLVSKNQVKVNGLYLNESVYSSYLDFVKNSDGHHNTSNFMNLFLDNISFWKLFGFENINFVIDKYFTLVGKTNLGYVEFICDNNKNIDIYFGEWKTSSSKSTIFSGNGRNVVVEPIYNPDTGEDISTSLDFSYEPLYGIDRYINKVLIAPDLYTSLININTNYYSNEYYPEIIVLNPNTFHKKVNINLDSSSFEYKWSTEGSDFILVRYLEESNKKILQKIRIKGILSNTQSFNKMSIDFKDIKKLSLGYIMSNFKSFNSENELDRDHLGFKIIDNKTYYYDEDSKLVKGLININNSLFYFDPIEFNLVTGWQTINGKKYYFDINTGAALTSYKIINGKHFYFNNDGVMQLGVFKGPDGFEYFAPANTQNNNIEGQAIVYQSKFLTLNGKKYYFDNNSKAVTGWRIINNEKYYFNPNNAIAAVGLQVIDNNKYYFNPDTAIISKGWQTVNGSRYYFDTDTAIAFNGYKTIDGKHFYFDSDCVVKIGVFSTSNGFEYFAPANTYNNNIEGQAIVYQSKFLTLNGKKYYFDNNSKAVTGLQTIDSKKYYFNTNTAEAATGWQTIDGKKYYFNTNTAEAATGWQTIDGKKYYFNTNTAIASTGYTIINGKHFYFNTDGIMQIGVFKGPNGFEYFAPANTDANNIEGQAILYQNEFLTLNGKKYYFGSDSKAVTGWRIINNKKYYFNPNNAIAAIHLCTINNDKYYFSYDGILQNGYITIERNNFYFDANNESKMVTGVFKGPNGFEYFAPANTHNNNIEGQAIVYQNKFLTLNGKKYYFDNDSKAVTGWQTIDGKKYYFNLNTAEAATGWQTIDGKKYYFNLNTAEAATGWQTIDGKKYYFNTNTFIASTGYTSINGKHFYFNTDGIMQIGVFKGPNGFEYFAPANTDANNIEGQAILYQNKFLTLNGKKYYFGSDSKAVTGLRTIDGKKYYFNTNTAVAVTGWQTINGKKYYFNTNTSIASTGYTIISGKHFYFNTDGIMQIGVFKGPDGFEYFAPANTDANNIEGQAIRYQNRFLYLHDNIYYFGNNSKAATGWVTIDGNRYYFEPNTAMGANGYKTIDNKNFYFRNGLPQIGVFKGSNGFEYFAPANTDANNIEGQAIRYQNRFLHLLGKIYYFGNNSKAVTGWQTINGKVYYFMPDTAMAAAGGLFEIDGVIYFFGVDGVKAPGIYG

B1: Parent A26.8 VHH (VHH, not shown: small tags and cut ends)
VHH: QVKLEESGGGLVQAGGSLRLSCAASERTFSRYPVAWFRQAPGAEREFVAVISSTGTSTYYADSVKGRFTISRDNAKVTVYLQMNNLKREDTAVYFCAVNSQRTRLQDPNEYDYWGQGTQVTVSS
As for B1, in assay [1], the “TcdA IC50, TcdA-induced Vero cell cytotoxicity (WST-1)” value (from here on “TcdA IC50”) is roughly 70 nM and the “maximal TcdA inhibition level” value is roughly 60%.

B2: A26.8 VHH mutant D107Y (VHH, not shown: small tags and cut ends)
VHH: QVKLEESGGGLVQAGGSLRLSCAASERTFSRYPVAWFRQAPGAEREFVAVISSTGTSTYYADSVKGRFTISRDNAKVTVYLQMNNLKREDTAVYFCAVNSQRTRLQYPNEYDYWGQGTQVTVSS
In assay [2], B2 showed a Kd of 44 nM, an off-rate (koff) of 0.0711 s⁻¹ and a kon of 1.62e+06 M⁻¹ s⁻¹. The “fold decrease in affinity relative to parent A26.8 VHH” value in assay [3] was no more than 2.5 fold. Besides, the “KD^WT/KD” value in assay [4] was determined as 0.4. Besides, the ΔΔG in assay [5] was determined as 0.5 kcal/mol.

B3: A26.8 VHH mutant E110Q (VHH, not shown: small tags and cut ends)
VHH: QVKLEESGGGLVQAGGSLRLSCAASERTFSRYPVAWFRQAPGAEREFVAVISSTGTSTYYADSVKGRFTISRDNAKVTVYLQMNNLKREDTAVYFCAVNSQRTRLQDPNQYDYWGQGTQVTVSS
Turning to B3, in assay [2], the affinity, expressed as Kd, was 33.6 nM; the koff is 0.0699 s⁻¹; the kon stood at 2.08e+06 M⁻¹ s⁻¹. Further, the “fold decrease in affinity relative to parent A26.8 VHH” value in assay [3] is no more than 2.5 fold. Moreover, the “KD^WT/KD” value in assay [4] was found to be 0.6. Moreover, the ΔΔG in assay [5] stood at 0.34 kcal/mol.

B4: A26.8 VHH mutant Q106W (VHH, not shown: small tags and cut ends)
VHH: QVKLEESGGGLVQAGGSLRLSCAASERTFSRYPVAWFRQAPGAEREFVAVISSTGTSTYYADSVKGRFTISRDNAKVTVYLQMNNLKREDTAVYFCAVNSQRTRLWDPNEYDYWGQGTQVTVSS
B4 had an equilibrium dissociation constant (Kd) in assay [6] of 1480 nM. The “KD^WT/KD” value in assay [4] came out at 0.01. For the same molecule, the ΔΔG in assay [5] was 2.55 kcal/mol.

B5: A26.8 VHH mutant Q106F (VHH, not shown: small tags and cut ends)
VHH: QVKLEESGGGLVQAGGSLRLSCAASERTFSRYPVAWFRQAPGAEREFVAVISSTGTSTYYADSVKGRFTISRDNAKVTVYLQMNNLKREDTAVYFCAVNSQRTRLFDPNEYDYWGQGTQVTVSS
In assay [6], B5 displayed a Kd of 5130 nM. The “fold decrease in affinity relative to parent A26.8 VHH” value in assay [3] lay within 30 to 300 fold. The “KD^WT/KD” value in assay [4] worked out at 0.004. Besides, the ΔΔG in assay [5] is 3.28 kcal/mol.

B6: A26.8-T103R (VHH, not shown: small tags and cut ends)
VHH: QVKLEESGGGLVQAGGSLRLSCAASERTFSRYPVAWFRQAPGAEREFVAVISSTGTSTYYADSVKGRFTISRDNAKVTVYLQMNNLKREDTAVYFCAVNSQRRRLQDPNEYDYWGQGTQVTVSS
In assay [2], B6 yielded a Kd of 5.32 nM, a koff of 0.014 s⁻¹ and a kon of 2.7e+06 M⁻¹ s⁻¹. In assay [3], the “fold improvement in KD relative to parent A26.8 VHH” value is greater than 2 fold, the “fold improvement in binding affinity relative to parent A26.8 VHH” value was roughly 3 fold and the “fold improvement in koff relative to parent” value is roughly 2.5 fold. Further, the “KD^WT/KD” value in assay [4] amounted to 3.5. The ΔΔG in assay [5] is -0.73 kcal/mol.

B7: A26.8-T56R, Q101K, T103R (VHH, not shown: small tags and cut ends)
VHH: QVKLEESGGGLVQAGGSLRLSCAASERTFSRYPVAWFRQAPGAEREFVAVISSTGRSTYYADSVKGRFTISRDNAKVTVYLQMNNLKREDTAVYFCAVNSKRRRLQDPNEYDYWGQGTQVTVSS
notes: also called lead triple mutant; best triple mutant
In assay [2], B7 gave an equilibrium dissociation constant (Kd) of 1.98 nM, a koff of 0.0241 s⁻¹ and a kon of 1.23e+07 M⁻¹ s⁻¹. In addition, in assay [3], the “fold change in kon relative to original A26.8” value was roughly 7 fold and the “fold improvement of KD relative to original A26.8” value came to 10 fold. In addition, in assay [1], the “TcdA IC50” value is roughly 12 nM; the “fold increase in neutralization potency relative to parent A26.8 VHH” value was found to be 6 fold; the “maximal TcdA inhibition level” value was roughly 70%. Also, the “KD^WT/KD” value in assay [4] stood at 9.4. Moreover, the ΔΔG in assay [5] is -1.31 kcal/mol.

B8: A26.8-Q101K (VHH, not shown: small tags and cut ends)
VHH: QVKLEESGGGLVQAGGSLRLSCAASERTFSRYPVAWFRQAPGAEREFVAVISSTGTSTYYADSVKGRFTISRDNAKVTVYLQMNNLKREDTAVYFCAVNSKRTRLQDPNEYDYWGQGTQVTVSS
As to B8, in assay [2], the Kd was 7.63 nM, the koff was 0.0198 s⁻¹ and the kon was 2.7e+06 M⁻¹ s⁻¹. For the same molecule, in assay [3], the “fold improvement in KD relative to parent A26.8 VHH” value is greater than 2 fold and the “fold improvement in binding affinity relative to parent A26.8 VHH” value is greater than 2 fold. Besides, the “KD^WT/KD” value in assay [4] was found to be 2.5. Further, the ΔΔG in assay [5] was -0.52 kcal/mol.

B9: A26.8-T103K (VHH, not shown: small tags and cut ends)
VHH: QVKLEESGGGLVQAGGSLRLSCAASERTFSRYPVAWFRQAPGAEREFVAVISSTGTSTYYADSVKGRFTISRDNAKVTVYLQMNNLKREDTAVYFCAVNSQRKRLQDPNEYDYWGQGTQVTVSS
Consider B9, for which, in assay [2], the Kd was 8.29 nM, the koff was 0.0199 s⁻¹ and the kon stood at 2.47e+06 M⁻¹ s⁻¹. In assay [3], the “fold improvement in KD relative to parent A26.8 VHH” value is greater than 2 fold and the “fold improvement in binding affinity relative to parent A26.8 VHH” value is greater than 2 fold. Also, the “KD^WT/KD” value in assay [4] amounted to 2.3. For the same molecule, the ΔΔG in assay [5] is -0.48 kcal/mol.

B10: A26.8-T56R (VHH, not shown: small tags and cut ends)
VHH: QVKLEESGGGLVQAGGSLRLSCAASERTFSRYPVAWFRQAPGAEREFVAVISSTGRSTYYADSVKGRFTISRDNAKVTVYLQMNNLKREDTAVYFCAVNSQRTRLQDPNEYDYWGQGTQVTVSS
With B10, in assay [2], the equilibrium dissociation constant (Kd) worked out at 6.16 nM, the koff came to 0.0269 s⁻¹ and the kon was determined as 4.75e+06 M⁻¹ s⁻¹. In addition, in assay [3], the “fold improvement in KD relative to parent A26.8 VHH” value is greater than 2 fold, the “fold improvement in binding affinity relative to parent A26.8 VHH” value was roughly 3 fold and the “fold improvement in kon relative to parent” value is roughly 2.5 fold. Besides, in assay [4], the “KD^WT/KD” value came out at 3. In assay [5], the ΔΔG was -0.65 kcal/mol.

B11: A26.8 VHH mutant Q106Y (VHH, not shown: small tags and cut ends)
VHH: QVKLEESGGGLVQAGGSLRLSCAASERTFSRYPVAWFRQAPGAEREFVAVISSTGTSTYYADSVKGRFTISRDNAKVTVYLQMNNLKREDTAVYFCAVNSQRTRLYDPNEYDYWGQGTQVTVSS
On to B11, for which the affinity in assay [6], expressed as Kd, was 2320 nM. Also, in assay [4], the “KD^WT/KD” value was 0.008. Moreover, the ΔΔG in assay [5] turned out to be 2.82 kcal/mol.

B12: A26.8-T56R, T103R (VHH, not shown: small tags and cut ends)
VHH: QVKLEESGGGLVQAGGSLRLSCAASERTFSRYPVAWFRQAPGAEREFVAVISSTGRSTYYADSVKGRFTISRDNAKVTVYLQMNNLKREDTAVYFCAVNSQRRRLQDPNEYDYWGQGTQVTVSS
notes: also called lead double mutant; best double mutant
With B12, in assay [2], binding was put at a Kd of 2.32 nM, the koff was 0.0193 s⁻¹ and the kon came out at 8.33e+06 M⁻¹ s⁻¹. In assay [3], the “fold affinity improvement relative to parent A26.8 VHH” value was 8 fold and the “fold increase in kon relative to parent A26.8 VHH” value is greater than 6 fold. Also, in assay [1], the “TcdA IC50” value is roughly 12 nM; the “fold increase in neutralization potency relative to parent A26.8 VHH” value was determined as 6 fold; the “maximal TcdA inhibition level” value was roughly 70%. Further, in assay [4], the “KD^WT/KD” value stood at 8.1. Besides, the ΔΔG in assay [5] is -1.22 kcal/mol.

B13: A26.8 VHH mutant R104W (VHH, not shown: small tags and cut ends)
VHH: QVKLEESGGGLVQAGGSLRLSCAASERTFSRYPVAWFRQAPGAEREFVAVISSTGTSTYYADSVKGRFTISRDNAKVTVYLQMNNLKREDTAVYFCAVNSQRTWLQDPNEYDYWGQGTQVTVSS
In assay [2], B13 showed a Kd of 165 nM, a koff of 0.0548 s⁻¹ and a kon of 330000 M⁻¹ s⁻¹. Moreover, the “fold decrease in affinity relative to parent A26.8 VHH” value in assay [3] was roughly 10 fold. In addition, the “KD^WT/KD” value in assay [4] was found to be 0.1. Besides, the ΔΔG in assay [5] is 1.27 kcal/mol.
